Source: paper PMC11800397, “Identification of the Polymerizing Glycosyltransferase Required for the Addition of D-Glucuronic Acid to the Capsular Polysaccharide of Campylobacter jejuni” (Biochemistry, 2025)

What was measured:
[1] = tested on: CO[C@@H]1O[C@H](CO)[C@@H](O)[C@H]1O; experiment: purified protein; settings: 2.0 mM UDP-D-GlcA fixed, 0-25 mM substrate, 10 μM enzyme, 50 mM NH4HCO3, pH 8.0, 25 °C
[2] = biological target: T1, Cj1438C (C-terminal domain of Cj1438) (Campylobacter jejuni, UniProt Q0P8H6); experiment: product analysis by ESI-MS, 1H and […] NMR; type: biochemical; settings: 5.0 mM ATP, 10 mM MgCl2, 50 mM NH4HCO3, pH 8.0, 25 °C, 4 h
T1 construct: C-terminal hexahistidine tag (pET31b(+)); E. coli; 40,084 Da
T1 sequence (Q0P8H6 entry or part of it): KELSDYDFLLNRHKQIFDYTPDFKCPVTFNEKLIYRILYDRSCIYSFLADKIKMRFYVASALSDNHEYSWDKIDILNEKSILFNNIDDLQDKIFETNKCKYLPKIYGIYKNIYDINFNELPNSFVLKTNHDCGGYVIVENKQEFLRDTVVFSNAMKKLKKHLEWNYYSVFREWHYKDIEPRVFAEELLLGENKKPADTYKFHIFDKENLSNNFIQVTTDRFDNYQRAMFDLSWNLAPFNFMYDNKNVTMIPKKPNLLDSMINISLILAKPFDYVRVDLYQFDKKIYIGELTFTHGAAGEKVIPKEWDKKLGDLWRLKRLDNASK

“Cj1432N (N-terminal domain of Cj1432) (Campylobacter jejuni subsp. jejuni NCTC 11168 = ATCC 700819)” was tested, and the Km [1] was 970 ± 90 µM and the kcat [1] was 0.0085 ± 0.00017 s⁻¹.
`N[C@@H](CO)COP(=O)(O)O` [(S)-serinol phosphate] was tested, and the “product analysis by ESI-MS, 1H and 31P NMR” value ([2]; 5.0 mM compound 7a) was “Incubation of Cj1438C with ATP, MgCl2, compound 7a, and (S)-serinol-P resulted in the formation”.
In the case of `CO[C@@H]1O[C@H](CO)[C@@H](O)[C@H]1O[C@H]1O[C@H](C(=O)O)[C@@H](O)[C@H](O)[C@H]1O` [7a, compound 7a], the “product analysis by ESI-MS, 1H and 31P NMR” value ([2]; 5.0 mM (S)-serinol phosphate) is reported as “Incubation of Cj1438C with ATP, MgCl2, compound 7a, and (S)-serinol-P resulted in the formation”.
